By Kd is commonly meant the free concentration of one partner at which half of the binding sites on the other are occupied at equilibrium, for simple one-to-one binding. Higher therefore signals a looser complex.

The assay concerns the target MCL-1 (Homo sapiens, UniProt Q07820). Description: fluorescence anisotropy direct titration.

Ends that are not written are not given here. * marks the point of attachment. FITC = O=C1OC2(c3ccc(O)cc3Oc3cc(O)ccc32)c2ccc(NC(=S)*)cc21; Ahx = NCCCCCC(=O)O

Sequence of MCL-1 (Q07820 whole entry): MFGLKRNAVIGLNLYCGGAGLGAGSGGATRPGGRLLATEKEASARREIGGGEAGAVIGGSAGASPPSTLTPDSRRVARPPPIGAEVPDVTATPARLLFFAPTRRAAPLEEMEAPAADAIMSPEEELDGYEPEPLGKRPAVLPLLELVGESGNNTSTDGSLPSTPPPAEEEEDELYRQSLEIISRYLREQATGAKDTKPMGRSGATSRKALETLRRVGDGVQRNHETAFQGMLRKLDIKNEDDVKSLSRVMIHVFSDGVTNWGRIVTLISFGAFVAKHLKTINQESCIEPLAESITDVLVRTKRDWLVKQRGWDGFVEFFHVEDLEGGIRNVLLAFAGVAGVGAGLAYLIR

The molecule {FITC-Ahx}-TRSPLFIFMRR [FITC-Ahx-BIM75–85 75-85] showed a Kd of 204 nM.
